# In patent publication US20110142830A1:
# Molecular target: sSortilin, Q99523
# Assay: SPR
# Conditions: modification not given
# Sequence of sSortilin, Q99523 (Q99523 78-755): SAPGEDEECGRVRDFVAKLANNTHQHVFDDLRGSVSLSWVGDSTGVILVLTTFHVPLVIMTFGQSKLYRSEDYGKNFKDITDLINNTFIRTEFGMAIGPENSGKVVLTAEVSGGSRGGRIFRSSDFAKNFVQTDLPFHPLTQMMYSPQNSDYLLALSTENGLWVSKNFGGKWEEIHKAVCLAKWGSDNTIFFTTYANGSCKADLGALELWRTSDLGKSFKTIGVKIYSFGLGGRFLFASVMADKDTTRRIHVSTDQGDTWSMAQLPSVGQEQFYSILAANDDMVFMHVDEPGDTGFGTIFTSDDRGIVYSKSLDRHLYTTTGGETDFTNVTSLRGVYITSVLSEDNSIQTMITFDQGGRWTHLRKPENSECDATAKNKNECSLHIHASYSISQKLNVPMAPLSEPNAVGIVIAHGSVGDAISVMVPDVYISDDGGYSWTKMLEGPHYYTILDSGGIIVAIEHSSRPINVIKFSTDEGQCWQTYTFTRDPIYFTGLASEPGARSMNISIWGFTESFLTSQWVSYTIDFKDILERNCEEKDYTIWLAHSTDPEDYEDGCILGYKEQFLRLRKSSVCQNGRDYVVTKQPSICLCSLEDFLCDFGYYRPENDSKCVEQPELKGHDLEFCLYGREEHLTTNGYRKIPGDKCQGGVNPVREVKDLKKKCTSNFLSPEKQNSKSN
binder,measurement,value
RRPYIL [NT8-13],EC50,460 nM
